Reference: patent US20230090114A1, “METHODS FOR PROMOTING WEIGHT LOSS” (89BIO LTD., priority 2020, published 2023)

Key:
[1] = Body weight of CD-1 mice, 4-week SC treatment; type: in vivo
Procedure: Detailed Methods: Adult male CD-1 mice at 6 weeks of age at receipt (with an expected weight of 35-39 g) were purchased from Charles River (St Germain sur l'Arbresle, France). From receipt, mice were singly housed and allowed ad libitum access to water and to a control diet (pellet A04; SAFE, Villemoisson-sur-Orge, France), unless otherwise noted (see Section D.). Throughout the study, animals were maintained in an ambient temperature (22.0±1.0° C.) and humidity (40-50%) controlled room on a 12-h light/12-h dark cycle (9:00 PM: Light ON/9:00 AM Light OFF).
At receipt and until the end of the experiment, all animals fed the control diet (A04 pellet). Following the acclimation and habituation periods, forty-eight (48) mice were subcutaneously treated either with vehicle, liraglutide (as the benchmark) or 89BIO-100 (3 different doses tested).
From T1 to T28, vehicle and 89BIO100 (at the 3 different doses) were administrated by subcutaneous (SC) injection three times a week, while the treatment with liraglutide was administrated by subcutaneous route, twice a day, every day. It was important to notice that the first dosing was done just before the […] (at 9:00 AM) and the second dosing was done 8 hours after the first one (at 5:00 PM). Throughout the treatment period, FI and BW were daily measured.
(§1) General Methods: Naive CD-1 mice were treated subcutaneously (SC) for 4 weeks at ambient temperature with BIO89-100 at doses of 0, 0.3, 1.0 and 3.0 mg/kg (3qW×4 weeks) or with liraglutide at 0.2 mg/kg (BID×4 W; SC). BW and FC were measured daily throughout the treatment period. To investigate the impact of BIO89-100 on energy expenditure, the respiratory exchanges (VO2 and VCO2) were recorded during 3 distinct sessions of METABOpack™, a multiparametric approach allowing an automated and simultaneous recording of FC, water intake, respiratory exchanges and spontaneous activity. Meal pattern analysis was conducted on the high-resolution recordings of FC. The body composition (fat, lean and fluid masses) was analyzed 3 times during the study by the mean of Time-Domain Nuclear Magnetic Resonance (TD-NMR).

[2] = Water intake (METABOpack sessions); type: in vivo, CD-1 mice;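 for cumulative water intake: water intake recorded in mL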
Text: During the METABOpack™ sessions, animals were housed singly in the Physiocage System (Panlab/Harvard apparatus), which was composed of: • 8 physiocages (LE1301) • 8 Air tight lids for mouse (LE1303) • 8 grid floors for mouse (LE1317) • 8 Feeding bottles for mouse (LE1306) • 2 Air supply and switching units for up to 4 home cages each (LE4004FL) • 1 O2/CO2 analyzer (LE405) • 1 acquisition software suite, METABOLISM (V3.0).
In the present project, a METABOpack™ session was consisted of a 12-hour period of acclimation followed by a 48-hour period of recording of the respiratory exchanges, FI, water intake (WI) and locomotor activity of each animal.
Following this acclimation period, the parameters cited above were automatically and simultaneously recorded for 48 hours, except for body weight that was measured manually every day.
The METABOpack™ sessions were conducted at the start (T1-2), the middle (T14-15) and the end (T26-27) of the treatment period.

[3] = Body composition (minispec Analyzer, TD-NMR); type: in vivo, CD-1 mice
Procedure: For body composition analyses, a minispec Analyzer (LF90II, Bruker, Germany) was used. The LF90II provides an accurate measure of the whole-body lean mass, fat mass and free fluid mass in living and vigil animals.
Body composition was measured using a minispec Analyzer (LF90II, Bruker, Germany) one (1) day before treatment start on habituation day 7 (H7) and on treatment day 13 (T13) and treatment day 25 (T25) of Treatment days. Briefly, each mouse was placed in a red clear plastic tube sealed by a plunger. Then, the tube was inserted into the minispec Analyzer for measurement of body composition (˜ 2 min/measurement). Once the measurement completed, the mouse was removed from the plastic tube and immediately replaced into its cage. The tube and the plunger were washed and dried between each mouse. As a reminder, the Minispec analyser allows fast and precise measurements of fat tissue (g) (adipose tissue), lean tissue (g) (mainly muscles) and free fluid content (g). It should be noted that each measurement was performed just prior to a METABOpack™ session in order to normalize the respiratory exchanges-related parameters of each mouse by its lean mass (see METABOpack™ session section).
as §1

[4] = BIO89-100-treated CD-1 mice, overall
[5] = T13, three doses, vs Liraglutide

B1: Mutant FGF21-GalNAc-SA-PEG-20 kDa (conjugate)
chain: MHPIPDSSPLLQFGGQVRQRYLYTDDAQQTEAHLEIREDGTVGGAADQSPESLLQLKALKPGVIQILGVKTSRFLCQRPDGALYGSLHFDPEACSFRELLLEDGYNVYQSEAHGLPLHLPGNKSPHRDPAPRGPARFLPLPGLPPALPEPPGILAPQPPDVGSSDPLSMVGPTQGASPSYAS
delta body weight ([1]; 0.3 mg/kg, vs Liraglutide, T2-T11, T13-T16): increase in delta body weight | body weight ([1]; 0.3 mg/kg, vs Liraglutide, T2-T24 and T26): greater body weight | delta body weight ([1]; 0.3 mg/kg, vs vehicle, T3-T6): increase in delta body weight | delta body weight ([1]; 1 mg/kg, vs 0.3 mg/kg, T6-T21): significant decrease in delta body weight | body weight ([1]; 1 mg/kg, vs Liraglutide, T2-T5): greater body weight | delta body weight ([1]; 1 mg/kg, vs vehicle, T8-T21, T23, T24): marked decrease in delta body weight | delta body weight ([1]; 3 mg/kg, vs 0.3 mg/kg, T5-T28): marked decrease in delta body weight | delta body weight ([1]; 3 mg/kg, vs 1 mg/kg, T11, T12, T13, T15): significant decrease in delta body weight | body weight ([1]; 3 mg/kg, vs 0.3 and 1 mg/kg, over treatment period): reduced the body weight | delta body weight ([1]; 3 mg/kg, vs Liraglutide, T8-T13 and T25): significant decrease in delta body weight | body weight ([1]; 3 mg/kg, vs Liraglutide, T11-T13): lower body weight | delta body weight ([1]; 3 mg/kg, vs vehicle, T3 and T6-T28): marked decrease in delta body weight | body weight ([1]; 3 mg/kg, vs vehicle, except T2, T3, T4): lower body weight | body weight ([1]; 0.3 and 1 mg/kg, vs vehicle): did not show any difference in body weight | body weight ([1]; 1 and 3 mg/kg, throughout treatment period (summary)): lower body weight in dose-dependent manner | delta body weight ([1]; 1 and 3 mg/kg, vs Liraglutide, T2-T4): increase in delta body weight | decrease in BW ([1]; naive CD-1 mice, 0.3-3.0 mg/kg SC 3qW x 4 weeks, dose-dependent, up to): up to −13.8% | mean water intake ([2]; T1, DP, 3 mg/kg, vs 0.3 and 1 mg/kg): decreased | mean water intake ([2]; T1, DP, 0.3 and 1 mg/kg, vs Liraglutide): increased | mean water intake ([2]; T1, NP and WD, whatever the dose, vs Liraglutide): increase in mean water intake | mean water intake ([2]; T1, three doses, vs vehicle): no significant difference | cumulative water intake ([2]; T2, 0.3 mg/kg, vs Liraglutide, 5-24 h): increased | cumulative water intake ([2]; T2, 0.3 mg/kg, vs vehicle, at 5, 6, 7, 9, 10 h and 12-24 h): increased | cumulative water intake ([2]; T2, 1 mg/kg, vs Liraglutide, 4-24 h): increased | cumulative water intake ([2]; T2, 1 mg/kg, vs vehicle, 4-24 h): increased | cumulative water intake ([2]; T2, 3 mg/kg, vs Liraglutide, 2-24 h): increased | cumulative water intake ([2]; T2, 3 mg/kg, vs vehicle, 2-24 h): increased | mean water intake ([2]; T2, NP, 0.3 and 1 mg/kg, vs vehicle): increased | mean water intake ([2]; T2, WD, whatever the dose, vs vehicle): increased | cumulative water intake ([2]; T2, between the three 89BIO-100 groups): no significant difference | mean water intake ([2]; T2, whatever the phase, whatever the dose, vs Liraglutide): increase in mean water intake | cumulative water intake ([2]; T14, 1 mg/kg, vs 0.3 mg/kg, at 2 h and 7-24 h): increased | cumulative water intake ([2]; T14, 3 mg/kg, vs 0.3 mg/kg, 3-24 h): increased | cumulative water intake ([2]; T14, 1 and 3 mg/kg, vs Liraglutide, 2-24 h): increased | cumulative water intake ([2]; T14, 1 and 3 mg/kg, vs vehicle, 2-24 h): increased | mean water intake ([2]; T14, NP, 1 and 3 mg/kg, vs 0.3 mg/kg): increased | mean water intake ([2]; T14, WD, 3 mg/kg, vs 0.3 mg/kg): increased | mean water intake ([2]; T14, whatever the phase, 1 and 3 mg/kg, vs Liraglutide): increase in mean water intake | mean water intake ([2]; T14, whatever the phase, 1 and 3 mg/kg, vs vehicle): increased | cumulative water intake ([2]; T15, 1 mg/kg, vs 0.3 mg/kg, 2-24 h): increased | cumulative water intake ([2]; T15, 3 mg/kg, vs 0.3 mg/kg, 1-15 h): increased | cumulative water intake ([2]; T15, 1 and 3 mg/kg, vs Liraglutide, over 24 h): increased | cumulative water intake ([2]; T15, 1 and 3 mg/kg, vs vehicle, over 24 h): increased | cumulative water intake ([2]; T26, 1 mg/kg, vs Liraglutide, at 3 h, 4 h and 6-21 h): increased | cumulative water intake ([2]; T26, 1 mg/kg, vs vehicle, only at 3 h and 4 h): increased | cumulative water intake ([2]; T26, 3 mg/kg, vs 0.3 mg/kg, 5-16 h): increased | cumulative water intake ([2]; T26, 3 mg/kg, vs Liraglutide, 3-24 h): increased | cumulative water intake ([2]; T26, 3 mg/kg, vs vehicle, 3-24 h): increased | mean water intake ([2]; T26, NP and WD, 3 mg/kg, vs vehicle): increased | mean water intake ([2]; T26, NP, 3 mg/kg, vs 0.3 mg/kg): increased | mean water intake ([2]; T26, NP, 1 and 3 mg/kg, vs Liraglutide): increase in mean water intake | mean water intake ([2]; T26, WD, 3 mg/kg, vs Liraglutide): increase in mean water intake | cumulative water intake ([2]; T27, 1 mg/kg, vs vehicle, 2-5 h): increased | cumulative water intake ([2]; T27, 3 mg/kg, vs 0.3 mg/kg, at 1 h and 3-8 h): increased | cumulative water intake ([2]; T27, 3 mg/kg, vs 1 mg/kg, at 3 h, 4 h, 5 h and 7 h): increased | cumulative water intake ([2]; T27, 3 mg/kg, vs Liraglutide, over 24 h): increased | cumulative water intake ([2]; T27, 3 mg/kg, vs vehicle, over 24 h): increased | mean water intake ([2]; T27, NP and WD, 3 mg/kg, vs vehicle and Liraglutide groups): increased | mean water intake ([2]; section On T15 (text prints T14), NP and WD, 1 and 3 mg/kg, vs vehicle): increased | mean water intake ([2]; section On T15, NP and WD, 1 and 3 mg/kg, vs Liraglutide): increase in mean water intake | mean water intake ([2]; section On T15, NP, 1 and 3 mg/kg, vs 0.3 mg/kg): increased | mean water intake ([2]; section On T15, WD, 1 mg/kg, vs 0.3 mg/kg): increased | fat mass [3, 4]: marked decrease in fat mass | lean masses and body fluid [3, 4]: without affecting | fat mass (g) ([3]; T13, 3 mg/kg, vs 0.3 mg/kg): significantly decreased | fluid mass (g) ([3]; T13, 3 mg/kg, vs 0.3 mg/kg): significantly decreased | lean mass (g) ([3]; T13, 3 mg/kg, vs 0.3 and 1 mg/kg): reduction in lean mass | fluid mass (g) ([3]; T13, 3 mg/kg, vs vehicle): significantly decreased | lean mass (g) ([3]; T13, 3 mg/kg, vs vehicle): significantly decreased | fat mass (g) ([3]; T13, 1 and 3 mg/kg, vs vehicle): reduction in fat mass | fat mass (g) [3, 5]: No significant difference | fluid mass (g) [3, 5]: No significant difference | lean mass (g) [3, 5]: No significant difference | fat mass (g) ([3]; T25, 1 and 3 mg/kg, vs vehicle): reduction in fat mass | fat mass (g) ([3]; T25, three doses, vs Liraglutide): No significant difference | delta fat mass (g) ([3]; T25 minus H7, 1 and 3 mg/kg, vs vehicle and Liraglutide): lower
